Values quoted from earlier work, collected in article PMC4480918.

Experiments:
Assay in all cases: NMR
His80 = His80 (UniProt position 121, KELYGHTLVWH); details: free enzyme (not the 2FCb glycosyl-enzyme intermediate)
His61 = details: redox state not stated
His92 = details: redox state not stated

Substance	pKa (His80)	pKa (His61)	pKa (His92)
Catalytic domain of beta-(1,4)-glycosidase Cex (CexCD) (Cellulomonas fimi)	7.9	–	–
Plastocyanin (A.v. Pc) (Anabaena variabilis)	–	7.1	5.1
